Measured values reported in patent EP4810608A2.

Experiments:
murine IL-11 (mouse) = murine IL-11 (mouse) (UniProt P47873); test: cell-based or functional assay
human IL-11 (human) = human IL-11 (human) (UniProt P20809); test: cell-based or functional assay
Chain of UniProt P20809 (P20809 22-199 limits assumed): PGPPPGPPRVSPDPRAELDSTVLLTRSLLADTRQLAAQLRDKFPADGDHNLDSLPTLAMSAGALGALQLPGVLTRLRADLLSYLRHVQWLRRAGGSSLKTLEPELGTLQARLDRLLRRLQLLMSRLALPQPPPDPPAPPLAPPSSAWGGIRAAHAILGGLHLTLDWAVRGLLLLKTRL

Chain of UniProt P47873 (P47873 22-199 limits assumed): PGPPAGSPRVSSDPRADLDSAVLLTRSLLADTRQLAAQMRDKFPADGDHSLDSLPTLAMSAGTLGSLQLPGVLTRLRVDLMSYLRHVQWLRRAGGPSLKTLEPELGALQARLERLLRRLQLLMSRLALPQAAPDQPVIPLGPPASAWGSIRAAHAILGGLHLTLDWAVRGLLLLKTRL

neutralising anti-human IL-11 monoclonal antibody (Monoclonal Mouse IgG2A; Clone #22626; Catalog No. MAB218; R&D Systems, MN, USA)
percentage of activated fibroblasts normalised to non-stimulated cultures (fold of non-stimulated cultures) (murine IL-11 (mouse)): 1.24
percentage of activated mouse atrial fibroblasts with TGFβ1, against unstimulated cultures (fold of unstimulated cultures) (murine IL-11 (mouse)): 1.44
percentage of activated mouse dermal fibroblasts with TGFβ1 (% activated fibroblasts) (murine IL-11 (mouse)): 39.4
percentage of activated (αSMA-positive) human atrial fibroblasts with TGFβ1 (% activated fibroblasts) (human IL-11 (human)): 28.3
percentage of activated fibroblasts normalised to non-stimulated cultures (fold of non-stimulated cultures) (human IL-11 (human)): 0.99
percentage of activated human atrial fibroblasts with TGFβ1, against unstimulated cultures (fold of unstimulated cultures) (human IL-11 (human)): 0.89
